Target: UB (ubiquitin)
Assay: SEC-MALS
Conditions: reference: unphosphorylated PARKIN; sites S65

other: mass increase on p-UB addition: same; reference ~7
Substance: PARKIN (from UniProt O60260) p-PARKIN

— publication PMC4254048
